From patent US20220324977A1 (BEIJING SINOGENE BIOTECHNOLOGY, published 2022)
Blank lines part the entries; values can stand above or below the binder they belong to.

Columns and labels:
[1] = target: T1, canine PD-1 protein amino acids 25-168 with His tag (canine, UniProt A0A090BAM7 25-168); experiment: kinetics, PD-1 His 1.1 nM
T1 construct: Expressed in Expi293F cells; used as immunogen and as antigen in ELISA and Octet; also called PD-1 His

[2] = target: T1, canine PD-1 protein amino acids 25-168 …; experiment: kinetics, PD-1 His 4.0 nM
[3] = target: T1, canine PD-1 protein amino acids 25-168 …; experiment: kinetics, PD-1 His 12.4 nM
[4] = target: T1, canine PD-1 protein amino acids 25-168 …; experiment: kinetics, PD-1 His 37.3 nM
[5] = target: T1, canine PD-1 protein amino acids 25-168 …; experiment: kinetics, PD-1 His 111.3 nM
[6] = target: T1, canine PD-1 protein amino acids 25-168 …; experiment: kinetics, PD-1 His 333.3 nM
[7] = target: T1, canine PD-1 protein amino acids 25-168 …; experiment: kinetics, PD-1 His 1000.0 nM
[8] = target: T1, canine PD-1 protein amino acids 25-168 …; experiment: kinetics, global fit over PD-1 His 1.1-1000 nM
[9] = target: T1, canine PD-1 protein amino acids 25-168 …; experiment: kinetics, global fit over the PD-1 His series 1.1-1000.0 nM
[10] = target: T2, PD1 on the surface of T cells (canine PBMC stimulated with ConA) (canine, UniProt A0A090BAM7 25-288); experiment: flow cytometry, ConA-stimulated canine PBMC, CD3-FITC and PE-labeled anti-canine IgG
T2 construct: also called canine PD-1
T2 sequence (A0A090BAM7 entry or part of it limits assumed): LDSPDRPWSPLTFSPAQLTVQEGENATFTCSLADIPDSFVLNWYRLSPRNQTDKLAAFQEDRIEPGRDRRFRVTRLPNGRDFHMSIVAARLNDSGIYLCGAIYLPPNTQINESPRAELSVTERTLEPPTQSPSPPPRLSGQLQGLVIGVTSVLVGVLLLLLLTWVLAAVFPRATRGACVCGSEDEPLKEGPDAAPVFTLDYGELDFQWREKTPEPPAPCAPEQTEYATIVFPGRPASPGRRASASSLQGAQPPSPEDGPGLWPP
Experimental: (§1) The cells were stimulated by 0.5 μg/mL ConA for 3 days, and collected. PBMC was incubated with canine-anti-CD3-FITC and caninized monoclonal antibodies C1, C3 and C11 respectively. Then the cells were incubated again with PE-labeled canine-IgG antibody. […] Moreover, the results also indicate that the caninized monoclonal antibodies C1, C3 and C11 have potential blocking effect on the PD1/PD-L1 signaling pathway, and thus have protective effect on the function of T cells (see FIG. 14).

[11] = target: T2, PD1 on the surface of T cells (canine …); experiment: flow cytometry on ConA-stimulated canine PBMC, stained with anti-CD3-FITC and the caninized antibody, detected with PE-labeled anti-canine IgG; quadrant plot FITC against PE; no unstained or isotype control shown
Experimental: as §1

[12] = target: T1, canine PD-1 protein amino acids 25-168 …; experiment: ELISA, PD-1 His 100 ng/mL, clone supernatant
[13] = target: T1, canine PD-1 protein amino acids 25-168 …; experiment: Octet BLI, supernatant captured by anti-mouse IgG Fc, PD-1 His 20 nM
Experimental: Octet BMIA was used to determine the affinity of the supernatant of the PD-1A clone culture to PD-1 His. Anti-mouse IgG Fc was added to each clone supernatant to capture competence factors.

PD1-Fc [14] = target: T3, PD1-Fc (canine, UniProt A0A090BAM7 25-168); experiment: Octet BLI competition, competitor PD-L1 Fc on AHC sensor, against PD1 Fc only
T3 construct: also called Only Ag (PD1 Fc)
T3 sequence (A0A090BAM7 entry or part of it limits assumed): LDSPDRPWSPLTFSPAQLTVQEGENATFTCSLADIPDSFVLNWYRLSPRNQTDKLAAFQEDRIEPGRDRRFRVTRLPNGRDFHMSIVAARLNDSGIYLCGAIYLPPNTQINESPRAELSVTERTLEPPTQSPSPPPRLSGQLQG
Experimental: (§2) D-L1 Fc ([…]) was loaded on an AHC sensor for cross-linking assay. Epitope analysis was used to determine the binding of antibodies loaded on the sensor to recombinant antibodies preincubated with PD1-Fc. The binding (response) degrees observed were compared to that of antigen only under the same conditions. If the total response of an antibody was higher than that of antigen only, the antibody would be matched. If the response of an antibody was lower than 80% of that of antigen, the antibody would be blocked with each other.

PD1-Fc [15] = target: T3, PD1-Fc; experiment: Octet BLI competition, competitor PD-L1 Fc on AHC sensor, PD1 Fc 50 nM preincubated with supernatant 1/2
Experimental: as §2

Response (nm) [1]: -0.031 nm | Kd [2]: 18.4 nM | Response (nm) [2]: 0.005 nm | koff [2]: 1.27 s⁻¹ | kon [2]: 6.93e+07 M⁻¹ s⁻¹ | Kd [3]: 2.46 nM | Response (nm) [3]: 0.001 nm | koff [3]: 0.0198 s⁻¹ | kon [3]: 8.05e+06 M⁻¹ s⁻¹ | Kd [4]: 2.65 nM | Response (nm) [4]: 0.008 nm | koff [4]: 0.00953 s⁻¹ | kon [4]: 3.6e+06 M⁻¹ s⁻¹ | Kd [5]: 2.06 nM | Response (nm) [5]: 0.016 nm | koff [5]: 0.000886 s⁻¹ | kon [5]: 430000 M⁻¹ s⁻¹ | Response (nm) [6]: -0.004 nm | Response (nm) [7]: 0.001 nm | Kd [8]: 1.59 nM | koff [8]: 0.401 s⁻¹ | kon [8]: 2.51e+08 M⁻¹ s⁻¹ | Kd [9]: 1.59 nM | koff [9]: 0.401 s⁻¹ | kon [9]: 2.51e+08 M⁻¹ s⁻¹ | PD1 positive cells in T cells [10]: 94.6% | % of cells in quadrant Q2 (Comp-FITC-A positive, Comp-PE-A positive) [11]: 57.9%
B1: caninized monoclonal antibody C1 (antibody, V domains shown)
VH: EVQLQQSGAELVKPGASVKLSCTASGFNIKDTYMHWVKQRPEQGLEWIGRIDPAIDNTKYDPKFQGKATITADTSSNTAYLQLSSLTSEDTAVYYCASGFYTMDYWGQGTSVTVSS
VL: QIVLTQSPAIMSASPGEKVTMTCSASSSVTYMYWFQQKPGSSPRLWIYDTSNLVSGVPARFSGSRSGTSYSLTISSMEAEDAATYYCQQYSGHPSSFGSGTKLEIKR
notes: Variable domains as for M1; also called C1(35.38); 35.38

O.D. determined by ELISA [12]: 2.87 | Kd [13]: < 0.001 nM | Response (nm) [13]: 0.041 nm | koff [13]: < 1e-07 s⁻¹ | kon [13]: 174000 M⁻¹ s⁻¹ | % response (PD1-Fc [14]): -5% | Response (nm) (PD1-Fc [15]): -0.002 nm
B2: PD-1 A-M3 (antibody, mouse IgG1, V domains shown)
VH: EVRLQQSGAELVKPGASVKLSCTASGFNIKDTYLHWLKERPEQGLEWIGRIDPAIGNTRYDPKFQVKATITADTSSNTAYLQLSSLTSEDSAVYYCARGFYGMDYWGQGTSVTVSS
VL: QIVLTQSPAIMSASPGEKVTMTCSASSSVSYMFWYQQKPGSSPRLWIYDTSNLVSGVPARFSGSRSGTSYSLTISSMEAEDAATYYCQQYSGYPYTFGGGTKLEIK
notes: Mouse IgG1 kappa, hybridoma supernatant; also called 4G01

O.D. determined by ELISA [12]: 2.58 | Kd [13]: 0.537 nM | Response (nm) [13]: 0.061 nm | koff [13]: 0.000159 s⁻¹ | kon [13]: 296000 M⁻¹ s⁻¹ | % response (PD1-Fc [14]): -0.47% | Response (nm) (PD1-Fc [15]): 0 nm
B3: PD-1 A-M23 (antibody, mouse IgG1, V domains shown)
VH: EVRLQQSGAELVKPGASVKLSCTASGFNIKDTYLHWLKERPEQGLEWIGRIDPAIGNTRYDPKFQVKATITADTSSNTAYLQLSSLTSEDSAVYYCARGFYGMDYWGQGTSVTVSS
VL: QIVLTQSPAIMSASPGEKVTMTCSASSSVSYMFWYQQKPGSSPRLWIYDTSNLVSGVPARFSGSRSGTSYSLTISSMEAEDAATYYCQQYSGYPYTFGGGTKLEIK
notes: Mouse IgG1 kappa, hybridoma supernatant; also called 18A08

O.D. determined by ELISA [12]: 2.83 | Kd [13]: 0.0306 nM | Response (nm) [13]: 0.044 nm | koff [13]: 6.96e-06 s⁻¹ | kon [13]: 227000 M⁻¹ s⁻¹ | % response (PD1-Fc [14]): 12% | Response (nm) (PD1-Fc [15]): 0.006 nm
B4: PD-1 A-M10 (antibody, mouse IgG1, V domains shown)
VH: EVRLQQSGAELVKPGASVKLSCTASGFNIKDTYLHWLKERPEQGLEWIGRIDPAIGNTRYDPKFQVKATITADTSSNTAYLQLSSLTSEDSAVYYCARGFYGMDYWGQGTSVTVSS
VL: QIVLTQSPAIMSASPGEKVTMTCSASSSVSYMFWYQQKPGSSPRLWIYDTSNLVSGVPARFSGSRSGTSYSLTISSMEAEDAATYYCQQYSGYPYTFGGGTKLEIK
notes: Mouse IgG1 kappa, hybridoma supernatant; also called 8H01

Response (nm) [1]: 0.002 nm | Response (nm) [2]: 0.009 nm | Response (nm) [3]: 0.005 nm | Kd [4]: < 0.001 nM | Response (nm) [4]: 0.017 nm | koff [4]: < 1e-07 s⁻¹ | kon [4]: 40500 M⁻¹ s⁻¹ | Kd [5]: < 0.001 nM | Response (nm) [5]: 0.026 nm | koff [5]: < 1e-07 s⁻¹ | kon [5]: 14700 M⁻¹ s⁻¹ | Kd [6]: < 1 pM | Response (nm) [6]: 0.01 nm | koff [6]: < 1e-07 s⁻¹ | kon [6]: 1760 M⁻¹ s⁻¹ | Kd [7]: < 1 pM | Response (nm) [7]: 0.007 nm | koff [7]: < 1e-07 s⁻¹ | kon [7]: 330 M⁻¹ s⁻¹ | Kd [8]: < 0.001 nM | koff [8]: < 1e-07 s⁻¹ | kon [8]: 626 M⁻¹ s⁻¹ | Kd [9]: < 0.001 nM | koff [9]: < 1e-07 s⁻¹ | kon [9]: 626 M⁻¹ s⁻¹ | PD1 positive cells in T cells [10]: 96.2% | % of cells in quadrant Q2 (Comp-FITC-A positive, Comp-PE-A positive) [11]: 53.1%
B5: caninized monoclonal antibody C3 (antibody, V domains shown)
VH: EVRLQQSGAELVKPGASVKLSCTASGFNIKDTYLHWLKERPEQGLEWIGRIDPAIGNTRYDPKFQVKATITADTSSNTAYLQLSSLTSEDSAVYYCARGFYGMDYWGQGTSVTVSS
VL: QIVLTQSPAIMSASPGEKVTMTCSASSSVSYMFWYQQKPGSSPRLWIYDTSNLVSGVPARFSGSRSGTSYSLTISSMEAEDAATYYCQQYSGYPYTFGGGTKLEIKR
notes: Variable domains as for M3; also called C3(36.39); 36.39

O.D. determined by ELISA [12]: 2.66 | Kd [13]: 0.903 nM | Response (nm) [13]: 0.049 nm | koff [13]: 0.000312 s⁻¹ | kon [13]: 346000 M⁻¹ s⁻¹ | % response (PD1-Fc [14]): -16% | Response (nm) (PD1-Fc [15]): -0.008 nm
B6: PD-1 A-M11 (antibody, V domains shown)
VH: EVQLQQSGAEVVKPGASVKLSCTASGFNIKDTYMHWVKQRPEQGLEWIGRIDPAIGNPKYDPKFQGRATITADTSSNTAYLQLSSLTSEDTAVYYCASGFYAMDCWGQGTSVTVSS
VL: QIVLTQSPAIMSASPGEKVTMTCSASSSITYMFWYQQKPGSSPRLWIYDTSNLVSGVPARFSGSKSGTSYSLTITSMEAEDAATYYCQQYSGYPSTFGSGTKLEIK
notes: Mouse IgG1 kappa, hybridoma supernatant; The VL is therefore uncertain; also called 9B04

O.D. determined by ELISA [12]: 2.34 | Kd [13]: 10.4 nM | Response (nm) [13]: 0.068 nm | koff [13]: 0.000608 s⁻¹ | kon [13]: 58500 M⁻¹ s⁻¹ | % response (PD1-Fc [14]): -8.21% | Response (nm) (PD1-Fc [15]): -0.005 nm
B7: PD-1 A-M15 (antibody, mouse IgG1, V domains shown)
VH: EVRLQQSGAELVKPGASVKLSCTASGFNIKDTYLHWLKERPEQGLEWIGRIDPAIGNTRYDPKFQVKATITADTSSNTAYLQLSSLTSEDSAVYYCARGFYGMDYWGQGTSVTVSS
VL: QIVLTQSPAIMSASPGEKVTMTCSASSSVSYMFWYQQKPGSSPRLWIYDTSNLVSGVPARFSGSRSGTSYSLTISSMEAEDAATYYCQQYSGYPYTFGGGTKLEIK
notes: Mouse IgG1 kappa, hybridoma supernatant; also called 11E10

O.D. determined by ELISA [12]: 2.65 | Kd [13]: 144 nM | Response (nm) [13]: 0.049 nm | koff [13]: 0.00044 s⁻¹ | kon [13]: 3060 M⁻¹ s⁻¹ | % response (PD1-Fc [14]): -21.9% | Response (nm) (PD1-Fc [15]): -0.009 nm
B8: PD-1 A-M1 (antibody, mouse IgG1, V domains shown)
VH: EVQLQQSGAELVKPGASVKLSCTASGFNIKDTYMHWVKQRPEQGLEWIGRIDPAIDNTKYDPKFQGKATITADTSSNTAYLQLSSLTSEDTAVYYCASGFYTMDYWGQGTSVTVSS
VL: QIVLTQSPAIMSASPGEKVTMTCSASSSVTYMYWFQQKPGSSPRLWIYDTSNLVSGVPARFSGSRSGTSYSLTISSMEAEDAATYYCQQYSGHPSSFGSGTKLEIK
notes: Mouse IgG1 kappa, tested as hybridoma supernatant; also called 2C08
